These results are taken from PMC6352406 (Annals of the Rheumatic Diseases, 2018).

The target of assay [1] is Human FcγRIIA 131R (Homo sapiens, FCGR2A 131R allele) (UniProt P12318). The assay is described as follows: SPR.
Assay [2] has as its target Human FcγRIIA 131H (Homo sapiens, FCGR2A 131H allele) (UniProt P12318). The assay is described as follows: SPR.
Assay [3] has as its target T1, FcγRIIA on human neutrophils (Homo sapiens, endogenous on …, UniProt P12318). The assay is described as follows: flow cytometry on cells. (In general: A flow cytometer gives signals particle by particle.)
For assay [4], the target named is T1, FcγRIIA on human neutrophils. The assay is described as follows: flow cytometry on cells. This is another data set of the same source.

Read-outs that look alike come from different tables or passages of the source.

Human FcγRIIA 131R (Homo sapiens, FCGR2A 131R allele), sequence (P12318 whole entry, looked up, tested part not stated): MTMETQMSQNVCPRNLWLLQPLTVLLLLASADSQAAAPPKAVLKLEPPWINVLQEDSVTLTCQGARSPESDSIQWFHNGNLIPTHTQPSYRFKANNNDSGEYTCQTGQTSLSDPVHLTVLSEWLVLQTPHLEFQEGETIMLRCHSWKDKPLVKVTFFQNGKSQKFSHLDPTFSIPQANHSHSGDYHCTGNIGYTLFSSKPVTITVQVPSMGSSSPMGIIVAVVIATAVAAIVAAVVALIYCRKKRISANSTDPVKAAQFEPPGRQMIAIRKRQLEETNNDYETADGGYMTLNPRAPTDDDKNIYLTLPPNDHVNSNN
Human FcγRIIA 131H (Homo sapiens, FCGR2A 131H allele), sequence (P12318 34-317): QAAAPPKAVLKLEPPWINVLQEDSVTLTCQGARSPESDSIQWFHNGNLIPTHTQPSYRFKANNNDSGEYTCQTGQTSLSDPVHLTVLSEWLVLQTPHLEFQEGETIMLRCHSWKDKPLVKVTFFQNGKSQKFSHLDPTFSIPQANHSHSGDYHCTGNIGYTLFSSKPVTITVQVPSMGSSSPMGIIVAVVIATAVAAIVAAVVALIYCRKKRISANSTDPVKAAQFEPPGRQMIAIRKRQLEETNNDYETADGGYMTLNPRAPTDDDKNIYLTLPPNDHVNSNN
T1 sequence (P12318 34-317): as above

Usually Kd stands for the equilibrium constant for the complex coming apart. As a reminder, the koff is a measure of how fast the partners let go of each other. Usually kon stands for the second-order rate constant of association. Read a low kon as slow association. Consider IV.3 Fab, for which, in assay [1], the Kd stood at 0.22 nM, the koff stood at 0.00129 s⁻¹ and the kon came out at 5.95e+06 M⁻¹ s⁻¹. In assay [2], this molecule gave a Kd of 0.22 nM, a koff of 0.000681 s⁻¹ and a kon of 3.03e+06 M⁻¹ s⁻¹.

On to VIB9600 Fab, for which, in assay [1], the Kd was determined as 0.15 nM, the koff is 0.000735 s⁻¹ and the kon is 4.98e+06 M⁻¹ s⁻¹. For the same molecule, in assay [2], the Kd worked out at 0.13 nM and the koff was 0.000337 s⁻¹.

B1: VIB9600, humanised effector-null anti-FcγRIIA antibody (antibody, V domains shown)
VH: QVQLVQSGAEVKKPGASVKVSCKASGYTFTNYGMNWVRQAPGQRLEWMGWLNTYTGESWYPDDFKGRVTITRDTSASTAYMELSSLRSEDTAVYYCARGDYGYDDPLDYWGQGTLVTVSS
VL: DIVMTQSPLSLPVTPGEPASISCRSSKSLLHTNQNTYLHWFLQKPGQSPQLLIYRMSVLASGVPDRFSGSGSGTDFTLKISRVEAEDVGVYYCMQHLEYPLTFGQGTKLEIK
What is called EC50 is the concentration needed to bring the measured effect to its halfway point. As for B1, the EC50 came to 0.03 nM in assay [3] and 3.35 nM in assay [4].
